Patent publication US20100216715A1 (Novo Nordisk, published 2010)
Where a chain is given by its changes, count along the chain named. Numbers in names are those of the source.

T1: human beta-Klotho (human, UniProt Q86Z14 1-1044)
T1 sequence (looked up): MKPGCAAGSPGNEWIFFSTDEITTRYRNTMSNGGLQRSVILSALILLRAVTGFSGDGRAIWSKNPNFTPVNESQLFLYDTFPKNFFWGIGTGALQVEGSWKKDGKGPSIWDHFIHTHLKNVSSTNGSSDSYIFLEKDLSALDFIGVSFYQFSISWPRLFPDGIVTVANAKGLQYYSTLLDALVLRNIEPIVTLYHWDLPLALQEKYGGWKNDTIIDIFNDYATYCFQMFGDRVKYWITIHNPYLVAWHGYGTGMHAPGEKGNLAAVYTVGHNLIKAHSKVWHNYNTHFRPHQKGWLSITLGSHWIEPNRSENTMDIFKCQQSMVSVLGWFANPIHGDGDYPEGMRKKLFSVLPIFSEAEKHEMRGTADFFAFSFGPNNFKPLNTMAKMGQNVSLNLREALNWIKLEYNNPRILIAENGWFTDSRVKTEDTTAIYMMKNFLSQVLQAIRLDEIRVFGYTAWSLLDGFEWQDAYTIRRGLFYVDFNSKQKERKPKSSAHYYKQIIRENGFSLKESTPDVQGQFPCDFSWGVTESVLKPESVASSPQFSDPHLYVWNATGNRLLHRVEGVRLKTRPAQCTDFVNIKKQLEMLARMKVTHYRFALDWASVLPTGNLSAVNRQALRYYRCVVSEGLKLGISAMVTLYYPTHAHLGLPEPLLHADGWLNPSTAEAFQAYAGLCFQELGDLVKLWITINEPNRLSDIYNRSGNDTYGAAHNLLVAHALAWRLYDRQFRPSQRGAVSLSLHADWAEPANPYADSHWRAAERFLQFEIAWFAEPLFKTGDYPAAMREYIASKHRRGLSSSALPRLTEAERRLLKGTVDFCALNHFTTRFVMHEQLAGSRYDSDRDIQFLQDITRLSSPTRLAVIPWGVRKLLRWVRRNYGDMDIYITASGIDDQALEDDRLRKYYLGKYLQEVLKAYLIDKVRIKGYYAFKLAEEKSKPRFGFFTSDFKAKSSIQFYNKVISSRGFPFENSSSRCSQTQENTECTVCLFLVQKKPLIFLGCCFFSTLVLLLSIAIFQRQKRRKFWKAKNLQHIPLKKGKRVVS

B1: Met-FGF21 (ligand)
chain: MHPIPDSSPLLQFGGQVRQRYLYTDDAQQTEAHLEIREDGTVGGAADQSPESLLQLKALKPGVIQILGVKTSRFLCQRPDGALYGSLHFDPEACSFRELLLEDGYNVYQSEAHGLPLHLPGNKSPHRDPAPRGPARFLPLPGLPPALPEPPGILAPQPPDVGSSDPLSMVGPSQGRSPSYAS
B2: (K56R, K59R, K69R, K122R) Gly-FGF21 derivative of Example 53 (ligand)
chain: B1 chain with M1G, K57R, K60R, K70R, K123R
modifications: N-alpha-1-(2-{2-[2-(16-1H-tetrazol-5-yl-hexadecanoylamino)-ethoxy]-ethoxy}-acetyl) on the N-terminal alpha amino group
B3: D102T Met-FGF21 (ligand)
chain: B1 chain with D103T
B4: (K56R, 59R, 69R, 122R, 168L) Gly-FGF21 derivative of Example 48 (ligand)
chain: B1 chain with M1G, K57R, K60R, K70R, K123R, M169L
modifications: N-alpha-1-[2-(2-{2-[2-(2-{2-[(S)-4-carboxy-4-(17-carboxy-heptadecanoylamino)-butyrylamino]-ethoxy}-ethoxy)-acetylamino]-ethoxy}-ethoxy)-acetyl] on the N-terminal alpha amino group
B5: (N121D) Met-FGF21 (ligand)
chain: B1 chain with N122D
B6: (K56R, K59R, K69R, K122R) Gly-FGF21 derivative of Example 46 (ligand)
chain: B1 chain with M1G, K57R, K60R, K70R, K123R
modifications: N-alpha-1-[2-(2-{2-[2-(2-{2-[(S)-4-carboxy-4-(17-carboxy-heptadecanoylamino)-butyrylamino]-ethoxy}-ethoxy)-acetylamino]-ethoxy}-ethoxy)-acetyl] on the N-terminal alpha amino group
B7: K122C Met-FGF21 derivative of Example 4 (ligand)
chain: B1 chain with K123C
modifications: S-122-[1-(2-{2-[2-(2-{2-[2-(2-{2-[(S)-4-carboxy-4-(17-carboxy-heptadecanoylamino)-butyrylamino]-ethoxy}-ethoxy)-acetylamino]-ethoxy}-ethoxy)-acetylamino]-ethylcarbamoyl}-ethyl)-2,5-dioxo-pyrrolidin-3-yl] on the thiol of Cys122
B8: (D102N) Met-FGF21 (ligand)
chain: B1 chain with D103N
B9: (N121Q) Met-FGF21 (ligand)
chain: B1 chain with N122Q
B10: (K56R, K59R, K69R, K122R) Gly-FGF21 (ligand)
chain: B1 chain with M1G, K57R, K60R, K70R, K123R
B11: (S71C) Gly-FGF21 (ligand)
chain: B1 chain with M1G, S72C
B12: (K56R, K59R, K69R, K122R) Gly-FGF21 derivative of Example 54 (ligand)
chain: B1 chain with M1G, K57R, K60R, K70R, K123R
modifications: N-alpha1-[4-(16-1H-tetrazol-5-yl-hexadecanoylsulfamoyl)-butyryl] on the N-terminal alpha amino group
B13: (A26E, K56R, K59R, K69R, D102T, N121Q, K122R, Y179F, A180E, S181R) Gly-FGF21 (ligand)
chain: GHPIPDSSPLLQFGGQVRQRYLYTDDEQQTEAHLEIREDGTVGGAADQSPESLLQLRALRPGVIQILGVRTSRFLCQRPDGALYGSLHFDPEACSFRELLLETGYNVYQSEAHGLPLHLPGQRSPHRDPAPRGPARFLPLPGLPPALPEPPGILAPQPPDVGSSDPLSMVGPSQGRSPSFER
B14: (Q28R, K56R, K59R, K69R, D102T, N121Q, K122R, M168L, Y179F, A180E, S181R) Gly-FGF21 (ligand)
chain: B13 chain with E27A, Q29R, M169L
B15: (Q27E, K56R, K59R, K69R, D102T, N121Q, K122R, Y179F, A180E, S181R) Gly-FGF21 (ligand)
chain: B13 chain with E27A, Q28E
B16: (Q28R, K56R, K59R, K69R, D102T, N121Q, K122R, L166F, S167G, M168L, G170T) Gly-FGF21 (ligand)
chain: B13 chain with E27A, Q29R, L167F, S168G, M169L, G171T, F180Y, E181A, R182S
B17: (Q28R, K56R, K59R, K69R, D102T, N121Q, K122R, D159E, M168L, G174A, Y179F) Gly-FGF21 (ligand)
chain: B13 chain with E27A, Q29R, D160E, M169L, G175A, E181A, R182S
B18: [28R, K56R, 59R, 69R, 102T, 121Q, 122R, 168L, 179F, 180E, 181R] Gly-FGF21 derivative of Example 47 (ligand)
chain: B13 chain with E27A, Q29R, M169L
modifications: N-alpha-1-[2-(2-{2-[2-(2-{2-[(S)-4-carboxy-4-(17-carboxy-heptadecanoylamino)-butyrylamino]-ethoxy}-ethoxy)-acetylamino]-ethoxy}-ethoxy)-acetyl] on the N-terminal alpha amino group
B19: (K56R, K59R, K69R, K122R) EEAEAGGAGGSGGS-FGF21 (ligand)
chain: EEAEAGGAGGSGGSHPIPDSSPLLQFGGQVRQRYLYTDDAQQTEAHLEIREDGTVGGAADQSPESLLQLRALRPGVIQILGVRTSRFLCQRPDGALYGSLHFDPEACSFRELLLEDGYNVYQSEAHGLPLHLPGNRSPHRDPAPRGPARFLPLPGLPPALPEPPGILAPQPPDVGSSDPLSMVGPSQGRSPSYAS
B20: (-14E, -13E, -12A, -11E, -10A, -9G, -8G, -7A, -6G, -5G, -4S, -3G, -2G, -1S, K56R, 59R, 69R, 122R) FGF21 derivative of Example 51 (ligand)
chain: B19 chain
modifications: N-alpha-1-[(S)-4-carboxy-4-(17-carboxy-heptadecanoylamino)-butyryl] on the N-terminal alpha amino group
B21: (K56R, K59R, K69R, K122R, L166F, S167G, M168L, 169aT, P171L, S172E, Q173A, G174V, Y179F, A180E, S181R) Gly-FGF21 (ligand)
chain: GHPIPDSSPLLQFGGQVRQRYLYTDDAQQTEAHLEIREDGTVGGAADQSPESLLQLRALRPGVIQILGVRTSRFLCQRPDGALYGSLHFDPEACSFRELLLEDGYNVYQSEAHGLPLHLPGNRSPHRDPAPRGPARFLPLPGLPPALPEPPGILAPQPPDVGSSDPFGLVTGLEAVRSPSFER
B22: (-1G, 71C, 166F, 167G, 168L, 169aT, 171L, 172E, 173A, 174V, 179F, 180E, 181K) FGF21 derivative of Example 15 (ligand)
chain: B21 chain with R57K, R60K, R70K, S72C, R123K, R183K
modifications: S-71-({2-[2-(2-{2-[2-(2-{2-[(S)-4-carboxy-4-(17-carboxy-heptadecanoylamino)-butyrylamino]-ethoxy}-ethoxy)-acetylamino]-ethoxy}-ethoxy)-acetyl-amino]-ethylcarbamoyl}-methyl) on the thiol of Cys71
B23: (S71C, L166F, S167G, M168L, 169aT, P171L, S172E, Q173A, G174V, Y179F, A180E, S181K) Gly-FGF21 (ligand)
chain: B21 chain with R57K, R60K, R70K, S72C, R123K, R183K
B24: (K56R, 59R, 69R, 122R, 166F, 167G, 168L, 169aT, 171L, 172E, 173A, 174V, 179F, 180E, 181R) Gly-FGF21 derivative of Example 49 (ligand)
chain: B21 chain
modifications: N-alpha-1-[2-(2-{2-[2-(2-{2-[(S)-4-carboxy-4-(17-carboxy-heptadecanoylamino)-butyrylamino]-ethoxy}-ethoxy)-acetylamino]-ethoxy}-ethoxy)-acetyl] on the N-terminal alpha amino group
B25: (S71C, D102E, N121Q, L166F, S167G, M168L, 169aT, P171L, S172E, Q173A, G174V, Y179F, A180E, S181K) Gly-FGF21 (ligand)
chain: B21 chain with R57K, R60K, R70K, S72C, D103E, N122Q, R123K, R183K
B26: (-1G, 71C, 121Q, 166F, 167G, 168L, 169aT, 171L, 172E, 173A, 174V, 179F, 180E, 181K) FGF21 derivative of Example 16 (ligand)
chain: B21 chain with R57K, R60K, R70K, S72C, N122Q, R123K, R183K
modifications: S-71-({2-[2-(2-{2-[2-(2-{2-[(S)-4-carboxy-4-(17-carboxy-heptadecanoylamino)-butyrylamino]-ethoxy}-ethoxy)-acetylamino]-ethoxy}-ethoxy)-acetylamino]-ethylcarbamoyl}-methyl) on the thiol of Cys71
B27: (S71C, N121Q, L166F, S167G, M168L, 169aT, P171L, S172E, Q173A, G174V, Y179F, A180E, S181K) Gly-FGF21 (ligand)
chain: B21 chain with R57K, R60K, R70K, S72C, N122Q, R123K, R183K

Biological target: T1, human beta-Klotho
Assay: cell-based or functional assay

| pERK-HEK293-Beta-klotho without HSA [EC50 (nM)] Median Value | Molecule |
| --- | --- |
| 9.5 nM | (P143V, A145E, L146E, 148aD, P149L, P150R, I152H, 153aE, 153bS, 153cD, 153dM, A154F, P155S, Q156S, P158L, D159E, V160T, G161D, S163M, L166F, S167G, M168L, 169aT, P171L, S172E, Q173A, G174V, Y179F, A180E, S181K) Met-FGF21 (ligand) |
| 1.6 nM | B1 |
| 6.4 nM | B2 |
| 1.7 nM | B3 |
| 4.6 nM | B4 |
| 1.2 nM | B5 |
| 3.9 nM | B6 |
| 0.9 nM | B7 |
| 0.7 nM | B8 |
| 1 nM | B9 |
| 7.4 nM | B10 |
| 2.5 nM | B11 |
| 4.2 nM | B12 |
| 44 nM | B13 |
| 29 nM | B14 |
| 36 nM | B15 |
| 1 nM | B16 |
| 15 nM | B17 |
| 10 nM | B18 |
| 2 nM | B19 |
| 12 nM | B20 |
| 3.3 nM | B21 |
| 1.6 nM | B22 |
| 1.4 nM | B23 |
| 1.2 nM | B24 |
| 1.8 nM | B25 |
| 1.4 nM | B26 |
| 1.1 nM | B27 |
